Measured values published in patent US20140087995A1 (published 2014).
Numbered stars: 1 amine (or outer) side, 2 acyl side, 3 side chain; on linkers, the order of the positions; unused ones are H or OH. Bridge positions count the residues as written; N and C are the ends. Side chains are listed from the residue outwards. Ends that are not written are not given here. * marks the point of attachment. C20 diacid = O=C(O)CCCCCCCCCCCCCCCCCCC(=O)*; γGlu = O=C(O)[C@H](CCC(=O)[*:2])N[*:1]

T1: human calcitonin receptor (human, UniProt P30988 25-474)
T1 sequence (looked up): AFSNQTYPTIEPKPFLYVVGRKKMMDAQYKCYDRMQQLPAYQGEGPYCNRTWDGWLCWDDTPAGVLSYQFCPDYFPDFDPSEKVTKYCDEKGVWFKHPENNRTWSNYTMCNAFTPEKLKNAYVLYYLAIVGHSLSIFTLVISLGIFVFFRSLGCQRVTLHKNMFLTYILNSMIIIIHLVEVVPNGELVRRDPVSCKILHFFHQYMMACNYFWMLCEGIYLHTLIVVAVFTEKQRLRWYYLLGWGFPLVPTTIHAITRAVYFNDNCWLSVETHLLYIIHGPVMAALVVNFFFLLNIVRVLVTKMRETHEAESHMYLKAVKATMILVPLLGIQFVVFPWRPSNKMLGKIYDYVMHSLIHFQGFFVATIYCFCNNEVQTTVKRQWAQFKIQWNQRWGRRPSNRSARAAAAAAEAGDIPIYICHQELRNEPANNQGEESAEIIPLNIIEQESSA

T2: human amylin receptor (amylin 3(a) receptor: human calcitonin receptor with RAMP-3) (human, UniProt P30988 25-474; O60896 24-148, limits assumed)
T2 construct: whole, on cells; Whole cells in the luciferase assay (Assay II a); also called hAmylin-R; hAmylinR
T2 sequence (looked up) 1: T1 sequence (looked up)
T2 sequence (looked up) 2: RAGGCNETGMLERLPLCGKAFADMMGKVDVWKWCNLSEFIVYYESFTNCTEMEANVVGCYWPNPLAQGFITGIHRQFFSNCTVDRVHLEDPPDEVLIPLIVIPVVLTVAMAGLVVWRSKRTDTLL

B1: N^ε1-[(4S)-4-carboxy-4-(19-carboxynonadecanoylamino)butanoyl]-[Asp14,Arg17,Pro21,Pro27,Pro34,Arg35]-h-amylin (peptide)
peptide: K([γGlu-C20 diacid])CNTATCATQRLADFLRHSSPNFGAIPSSTNVGPRTY-NH2
modifications: disulfide 2-7; N-terminus assumed
SMILES: CC[C@H](C)[C@H](NC(=O)[C@H](C)NC(=O)CNC(=O)[C@H](Cc1ccccc1)NC(=O)[C@H](CC(N)=O)NC(=O)[C@@H]1CCCN1C(=O)[C@H](CO)NC(=O)[C@H](CO)NC(=O)[C@H](Cc1c[nH]cn1)NC(=O)[C@H](CCCNC(=N)N)NC(=O)[C@H](CC(C)C)NC(=O)[C@H](Cc1ccccc1)NC(=O)[C@H](CC(=O)O)NC(=O)[C@H](C)NC(=O)[C@H](CC(C)C)NC(=O)[C@H](CCCNC(=N)N)NC(=O)[C@H](CCC(N)=O)NC(=O)[C@@H](NC(=O)[C@H](C)NC(=O)[C@@H]1CSSC[C@H](NC(=O)[C@@H](N)CCCCNC(=O)CC[C@H](NC(=O)CCCCCCCCCCCCCCCCCCC(=O)O)C(=O)O)C(=O)N[C@@H](CC(N)=O)C(=O)N[C@@H]([C@@H](C)O)C(=O)N[C@@H](C)C(=O)N[C@@H]([C@@H](C)O)C(=O)N1)[C@@H](C)O)C(=O)N1CCC[C@H]1C(=O)N[C@@H](CO)C(=O)N[C@@H](CO)C(=O)N[C@H](C(=O)N[C@@H](CC(N)=O)C(=O)N[C@H](C(=O)NCC(=O)N1CCC[C@H]1C(=O)N[C@@H](CCCNC(=N)N)C(=O)N[C@H](C(=O)N[C@@H](Cc1ccc(O)cc1)C(N)=O)[C@@H](C)O)C(C)C)[C@@H](C)O
B2: N^ε1-[(4S)-4-carboxy-4-(19-carboxynonadecanoylamino)butanoyl]-[Glu14,Arg17,Pro21,Pro27,Pro34,Arg35]-h-amylin (peptide)
peptide: K([γGlu-C20 diacid])CNTATCATQRLAEFLRHSSPNFGAIPSSTNVGPRTY-NH2
modifications: disulfide 2-7; N-terminus assumed
SMILES: CC[C@H](C)[C@H](NC(=O)[C@H](C)NC(=O)CNC(=O)[C@H](Cc1ccccc1)NC(=O)[C@H](CC(N)=O)NC(=O)[C@@H]1CCCN1C(=O)[C@H](CO)NC(=O)[C@H](CO)NC(=O)[C@H](Cc1c[nH]cn1)NC(=O)[C@H](CCCNC(=N)N)NC(=O)[C@H](CC(C)C)NC(=O)[C@H](Cc1ccccc1)NC(=O)[C@H](CCC(=O)O)NC(=O)[C@H](C)NC(=O)[C@H](CC(C)C)NC(=O)[C@H](CCCNC(=N)N)NC(=O)[C@H](CCC(N)=O)NC(=O)[C@@H](NC(=O)[C@H](C)NC(=O)[C@@H]1CSSC[C@H](NC(=O)[C@@H](N)CCCCNC(=O)CC[C@H](NC(=O)CCCCCCCCCCCCCCCCCCC(=O)O)C(=O)O)C(=O)N[C@@H](CC(N)=O)C(=O)N[C@@H]([C@@H](C)O)C(=O)N[C@@H](C)C(=O)N[C@@H]([C@@H](C)O)C(=O)N1)[C@@H](C)O)C(=O)N1CCC[C@H]1C(=O)N[C@@H](CO)C(=O)N[C@@H](CO)C(=O)N[C@H](C(=O)N[C@@H](CC(N)=O)C(=O)N[C@H](C(=O)NCC(=O)N1CCC[C@H]1C(=O)N[C@@H](CCCNC(=N)N)C(=O)N[C@H](C(=O)N[C@@H](Cc1ccc(O)cc1)C(N)=O)[C@@H](C)O)C(C)C)[C@@H](C)O

Columns and labels:
[1] = molecular target: T1, human calcitonin receptor; test: cell-based or functional assay
[2] = molecular target: T2, human amylin receptor (amylin 3(a) …); test: SPA competition binding on membranes of BHK cells with human calcitonin receptor + RAMP-3; displacement of 125I-rat amylin (Assay V)
Procedure, shortened: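 Cell membranes were prepared by homogenisation in Na-HEPES/EDTA buffer, pH 7.4, and stored at −80° C. They were then coupled to SPA beads at 35 ng/μL final and exposed to compounds in assay buffer containing CaCl2, MgCl₂, OA and Tween20. After 120 min at 25° C, plates were counted and IC₅₀ derived.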

Row | Binder | Ratio hCT/hAmylin funct. [1] | hCTR funct. EC50 (pM) [1] | IC50 [2]
1 | B1 | 24.9 ratio | 3640 pM | 0.281 nM
2 | B2 | 17 ratio | 6380 pM | 0.163 nM
